# Data reported in patent US20250043017A1 (Regeneron, published 2025).
# How the values were obtained:
# [1] = target: T1, human 4-1BB on cells (human, UniProt Q07011 24-255); experiment: cell-based or functional assay
# [2] = target: T1, human 4-1BB on cells; experiment: cell-based or functional assay; remark: listed apart in the source
# [3] = target: T2, human PD-L1 on cells (human, UniProt Q9NZQ7 19-290); experiment: cell-based or functional assay
# [4] = target: T2, human PD-L1 on cells; experiment: flow cytometry, OVCAR3/hPD-L1 cells
# Procedure: (§1) Binding was detected by using a labeled secondary antibody and measuring fluorescence on a flow cytometer.
# (§2) Assay set up: OVCAR-3+/−PD-L1 cells were lifted with trypsin, washed and resuspended in stain buffer (2% FBS in PBS). OVCAR-3 and Jurkat/NFkB-Luc/h41BB cells were counted and added to wells at 200,000 cells/well. Cells, in wells of 96-well round bottom plates, were pelleted by centrifugation and resuspended in 150 ul stain buffer (PBS containing 2% FBS). Plates were once again centrifuged and subsequently 100 ul of stain buffer alone or stain buffer containing antibody, titrated from 200 nM to 12 pM in a 9-point 1:4 dose titration were added to cells. Cells and antibodies were incubated for 30 min on ice and then washed in stain buffer. Cells were resuspended in 2 μg/ml allophycocyanin (APC) conjugated goat-anti human secondary antibody. A secondary antibody alone control was included. Cells and secondary were incubated for 30 min on ice and then washed in stain buffer. […] After washing they were filtered and analyzed by flow cytometry. EC₅₀ values of the antibodies were determined from a 4 parameter logistic equation over a 9-point dose response curve (including secondary only control) using GraphPad Prism software.
# [5] = target: T2, human PD-L1 on cells; experiment: flow cytometry, OVCAR3 cells (low endogenous PD-L1)
# Procedure: as §1, §2
# [6] = target: T3, hPD-L1-mFc (human; mouse, UniProt Q9NZQ7 19-239); experiment: blocking ELISA, 0.7 nM hPD-L1-mFc binding to coated hPD1-hFc
# T3 construct: range 19-239; also called human PD-L1 extracellular domain with mouse IgG2a Fc; not shown: Fc portion of mouse IgG2a at the C-terminus, amino acids E98-K330
# T3 sequence (Q9NZQ7 19-239 limits assumed): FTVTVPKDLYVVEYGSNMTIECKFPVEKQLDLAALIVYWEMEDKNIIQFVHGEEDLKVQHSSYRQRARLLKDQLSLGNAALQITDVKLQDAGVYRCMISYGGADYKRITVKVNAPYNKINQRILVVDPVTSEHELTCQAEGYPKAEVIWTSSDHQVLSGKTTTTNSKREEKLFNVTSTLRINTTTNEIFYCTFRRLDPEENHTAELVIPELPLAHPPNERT
# Procedure: In the PD-L1 blocking assay, hPD1-hFc protein ([…] in PBS) was coated onto a 96-well microtiter plate overnight at 4° C. […] The plates were then developed using TMB substrate solution (BD Biosciences) according to the manufacturer's recommended procedure and the absorbance at 450 nm was measured on a SpectraMax I3x plate reader.
# (§3) Binding data were analyzed using a sigmoidal (four-parameter logistic) dose-response model with GraphPad Prism™ software. […] The percent blocking of tested antibodies at the highest tested concentration of 100 nM was calculated based on the formula shown below: […]
# [7] = target: T4, human 4-1BB expressed with a C-terminal myc-myc-hexahistidine tag (h4-1BB.mmH) (human); experiment: blocking ELISA, 0.25 nM h4-1BB-mmh binding to coated 6His-Flag-h4-1BBL
# T4 construct: also called hCD137 (4-1BB) mmH
# T4 sequence (chain, as listed by the source limits assumed): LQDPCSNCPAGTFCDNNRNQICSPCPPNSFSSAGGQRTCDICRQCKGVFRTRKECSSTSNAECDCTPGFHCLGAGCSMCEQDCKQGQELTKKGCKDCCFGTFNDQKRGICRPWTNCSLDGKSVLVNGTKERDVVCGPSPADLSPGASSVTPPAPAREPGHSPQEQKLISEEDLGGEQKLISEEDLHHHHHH
# Procedure: The 4-1BB blocking assay was performed similarly to the PD-L1 blocking assay. 6His-Flag-h4-1BBL protein ([…] in PBS) was coated onto a 96-well microtiter plate overnight at 4 °C. […] The plates were developed using TMB substrate solution (BD Biosciences) and the absorbance at 450 nm was measured on a SpectraMax I3x plate reader.
# as §3
# [8] = target: human PD-L1 expressed with a C-terminal myc-myc-hexahistidine tag (hPD-L1.mmH) (human); experiment: SPR Biacore, 25 C, antibody captured via anti-hFc, hPD-L1.mmH as analyte
# Sequence of human PD-L1 expressed with a C-terminal myc-myc-hexahistidine tag (hPD-L1.mmH) (human) (chain, as listed by the source limits assumed): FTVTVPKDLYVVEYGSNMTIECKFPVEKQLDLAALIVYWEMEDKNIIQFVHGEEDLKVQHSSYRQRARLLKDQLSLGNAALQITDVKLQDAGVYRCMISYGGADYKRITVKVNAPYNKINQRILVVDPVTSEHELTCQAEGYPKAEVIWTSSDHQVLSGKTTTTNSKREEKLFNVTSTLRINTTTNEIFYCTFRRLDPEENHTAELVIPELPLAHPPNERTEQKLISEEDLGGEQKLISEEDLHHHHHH
# Procedure: (§4) The CM5 Biacore sensor surface was derivatized by amine coupling with a monoclonal mouse anti-human Fc antibody. All Biacore binding studies were performed in a buffer composed of 0.01M HEPES pH 7.4, 0.15M NaCl, 3 mM EDTA, 0.05% v/v Surfactant P20 (HBS-EP running buffer). […] Antibody-reagent association was monitored for 5 minutes while dissociation in HBS-EP running buffer was monitored for 10 minutes. At the end of each cycle, the antibody capture surface was regenerated using a 12 sec injection of 20 mM phosphoric acid. All binding kinetics experiments were performed at 25° C.
# (§5) Data analysis: The specific SPR-Biacore sensorgrams were obtained by a double referencing procedure. The double referencing was performed by first subtracting the signal of each injection over a reference surface (anti-hFc or anti-mFc) from the signal over the experimental surface (anti-hFc-captured anti-PD-L1×4-1BB antibodies) thereby removing contributions from refractive index changes. In addition, running buffer injections were performed to allow subtraction of the signal changes resulting from the dissociation of captured antibodies or antigens from the coupled anti-hFc or anti-mFc surface. Kinetic association (kₐ) and dissociation (kd) rate constants were determined by fitting the real-time sensorgrams to a 1:1 binding model using Scrubber v2.0c curve fitting software. Binding dissociation equilibrium constants (KD) and dissociative half-lives (t½) were calculated from the kinetic rate constants as: […]
# [9] = target: T4, human 4-1BB expressed with a C-terminal …; experiment: SPR Biacore, 25 C, antibody captured via anti-hFc, h4-1BB.mmH as analyte
# Procedure: as §4, with “10” for “12”
# as §5
# [10] = target: T2, human PD-L1 on cells; experiment: flow cytometry, Jurkat/NFkB-Luc/h41BB cells (potential low endogenous PD-L1)
# Procedure: as §1, §2
# [11] = target: T1, human 4-1BB on cells; experiment: flow cytometry, Jurkat/NFkB-Luc/h41BB cells
# Procedure: as §1
# Assay set up: OVCAR-3+/−PD-L1 cells were lifted with trypsin, washed and resuspended in stain buffer (2% FBS in PBS). OVCAR-3 and Jurkat/NFkB-Luc/h41BB cells were counted and added to wells at 200,000 cells/well. Cells, in wells of 96-well round bottom plates, were pelleted by centrifugation and resuspended in 150 ul stain buffer (PBS containing 2% FBS). Plates were once again centrifuged and subsequently 100 ul of stain buffer alone or stain buffer containing antibody, titrated from 200 nM to 12 pM in a 9-point 1:4 dose titration were added to cells. Cells and antibodies were incubated for 30 min on ice and then washed in stain buffer. Cells were resuspended in 2 μg/ml allophycocyanin (APC) conjugated goat-anti human secondary antibody. A secondary antibody alone control was included. Cells and secondary were incubated for 30 min on ice and then washed in stain buffer. After a subsequent wash with PBS (containing no FBS), cells were resuspended in viability dye (reconstituted in DMSO according to the manufacturer's protocol and diluted 1:1000 in PBS) and incubated for 20 min on ice. They were then washed with stain buffer and resuspended in 2% PFA for 30 min at 4 C. After washing they were filtered and analyzed by flow cytometry. EC₅₀ values of the antibodies were determined from a 4 parameter logistic equation over a 9-point dose response curve (including secondary only control) using GraphPad Prism software.
# T1 sequence (Q07011 24-255): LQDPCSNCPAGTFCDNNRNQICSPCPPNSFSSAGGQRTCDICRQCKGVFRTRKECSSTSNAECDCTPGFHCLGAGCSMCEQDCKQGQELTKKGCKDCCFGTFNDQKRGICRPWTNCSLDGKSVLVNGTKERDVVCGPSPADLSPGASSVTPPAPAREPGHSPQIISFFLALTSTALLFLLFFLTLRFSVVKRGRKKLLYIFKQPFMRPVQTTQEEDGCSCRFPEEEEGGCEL
# T2 sequence (Q9NZQ7 19-290): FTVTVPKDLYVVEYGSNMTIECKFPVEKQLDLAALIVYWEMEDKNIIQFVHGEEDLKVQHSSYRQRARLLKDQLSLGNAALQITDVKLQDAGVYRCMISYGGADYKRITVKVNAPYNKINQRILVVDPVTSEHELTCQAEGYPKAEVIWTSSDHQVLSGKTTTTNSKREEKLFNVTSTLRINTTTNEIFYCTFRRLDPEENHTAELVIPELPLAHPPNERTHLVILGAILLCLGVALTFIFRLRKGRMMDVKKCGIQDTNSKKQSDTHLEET
"NFkB-luciferase MAX (RLU), Jurkat/NFkB-Luc/h41BB + HEK293/hCD20/hPSMA [1] [RLU]","NFkB-luciferase MAX (RLU), Jurkat/NFkB-Luc/h41BB + HEK293/hCD20/hPSMA/hPD-L1 [1] [RLU]","IL2 release MAX, human CD3+ T cells + HEK293/hCD20/hPSMA + CD20xCD3 [2] [pg/mL]","IL2 release MAX, human CD3+ T cells + HEK293/hCD20/hPSMA, no CD20xCD3 [2] [pg/mL]","IL2 release MAX, human CD3+ T cells + HEK293/hCD20/hPSMA/hPD-L1 + CD20xCD3 [2] [pg/mL]","IL2 release MAX, human CD3+ T cells + HEK293/hCD20/hPSMA/hPD-L1, no CD20xCD3 [2] [pg/mL]",% Blocking at 100 nM mAb [7] [%],270 nM h4-1BB-mmH Bind (RU) [9] [RU],"NFkB-luciferase EC50, Jurkat/NFkB-Luc/h41BB + HEK293/hCD20/hPSMA/hPD-L1 [1] [pM]","IL2 release EC50, human CD3+ T cells + HEK293/hCD20/hPSMA/hPD-L1 + CD20xCD3 [2] [pM]",Fold change (max MFI over secondary antibody alone) [11] [fold],Max [gMFI] [11] [gMFI],Kd [9] [pM],koff [9] [s⁻¹],kon [9] [M⁻¹ s⁻¹],t½ [9] [s],Binder,further results
60900,70900,13.4,3.5,9.3,3.5,0,2,–,–,–,–,–,–,–,–,"mAb9364 (antibody, V domains shown, bivalent parental anti-PD-L1 antibody; captured by anti-human Fc); also called 9364P3; parental bivalent PD-L1 antibody) VH: EVQLVESGGGLVQPGRSLRLSCAASGFTFDDYALHWVRQAPGKGLEWVSGISWTGGTIDYADSVKGRFTISRDNAKNSLYLQMSSLRTEDTAIYYCTRDIRGNWKYGGWFDPWGQGTLVTVSS VL: not shown","AP-1 luciferase EC50, Jurkat/AP1-luc/hPD1 + WSU-DLCL2/hPD-L1 + CD20xCD3 [3]: 6.51 pM; EC50 [4]: 860 pM; Fold change (max MFI over secondary antibody alone) [4]: 2200 fold; EC50 [5]: 8.4 pM; Fold change (max MFI over secondary antibody alone) [5]: 4.4 fold; IC50 [6]: 520 pM; Kd [8]: 130 pM; koff [8]: 7.42e-05 s⁻¹; kon [8]: 571000 M⁻¹ s⁻¹; t½ [8]: 2.59 h; binding result [9]: no binding (tested: 270 nM); Fold change (max MFI over secondary antibody alone) [10]: 9.5 fold"
175000,1.18e+06,8.7,10.1,83.1,10.1,64,25.4,7030,1090,23.8,54000,61600,0.0315,511000,24,"REGN6189 (bispecific antibody, human IgG4 S228P, kappa, common light chain 1-39; also called R6189; PD-L1x4-1BB REGN6189) heavy 1: EVQLVESGGGLVQPGRSLRLSCAASGFTFDDYALHWVRQAPGKGLEWVSGISWTGGTIDYADSVKGRFTISRDNAKNSLYLQMSSLRTEDTAIYYCTRDIRGNWKYGGWFDPWGQGTLVTVSSASTKGPSVFPLAPCSRSTSESTAALGCLVKDYFPEPVTVSWNSGALTSGVHTFPAVLQSSGLYSLSSVVTVPSSSLGTKTYTCNVDHKPSNTKVDKRVESKYGPPCPPCPAPPVAGPSVFLFPPKPKDTLMISRTPEVTCVVVDVSQEDPEVQFNWYVDGVEVHNAKTKPREEQFNSTYRVVSVLTVLHQDWLNGKEYKCKVSNKGLPSSIEKTISKAKGQPREPQVYTLPPSQEEMTKNQVSLTCLVKGFYPSDIAVEWESNGQPENNYKTTPPVLDSDGSFFLYSRLTVDKSRWQEGNVFSCSVMHEALHNHYTQKSLSLSLGK heavy 2: QVQLVESGGDVVQPGRSLRLSCTASGFTFSSFGMHWVRQAPGKGLEWVTFLSYDGSYKYYADSVKGRFTISRDNSKNTLYLQMNSLRAEDTAIFYCARDWLDYWGQGTLVTVSSASTKGPSVFPLAPCSRSTSESTAALGCLVKDYFPEPVTVSWNSGALTSGVHTFPAVLQSSGLYSLSSVVTVPSSSLGTKTYTCNVDHKPSNTKVDKRVESKYGPPCPPCPAPPVAGPSVFLFPPKPKDTLMISRTPEVTCVVVDVSQEDPEVQFNWYVDGVEVHNAKTKPREEQFNSTYRVVSVLTVLHQDWLNGKEYKCKVSNKGLPSSIEKTISKAKGQPREPQVYTLPPSQEEMTKNQVSLTCLVKGFYPSDIAVEWESNGQPENNYKTTPPVLDSDGSFFLYSRLTVDKSRWQEGNVFSCSVMHEALHNRFTQKSLSLSPGK light: not shown",–
120000,973000,9.6,8.9,52.5,8.9,85,30.7,4480,663,36.2,82000,30300,0.021,692000,30,"REGN6190 (bispecific antibody, human IgG4 S228P, kappa, common light chain 1-39; also called R6190; PD-L1x4-1BB REGN6190) heavy 1: EVQLVESGGGLVQPGRSLRLSCAASGFTFDDYALHWVRQAPGKGLEWVSGISWTGGTIDYADSVKGRFTISRDNAKNSLYLQMSSLRTEDTAIYYCTRDIRGNWKYGGWFDPWGQGTLVTVSSASTKGPSVFPLAPCSRSTSESTAALGCLVKDYFPEPVTVSWNSGALTSGVHTFPAVLQSSGLYSLSSVVTVPSSSLGTKTYTCNVDHKPSNTKVDKRVESKYGPPCPPCPAPPVAGPSVFLFPPKPKDTLMISRTPEVTCVVVDVSQEDPEVQFNWYVDGVEVHNAKTKPREEQFNSTYRVVSVLTVLHQDWLNGKEYKCKVSNKGLPSSIEKTISKAKGQPREPQVYTLPPSQEEMTKNQVSLTCLVKGFYPSDIAVEWESNGQPENNYKTTPPVLDSDGSFFLYSRLTVDKSRWQEGNVFSCSVMHEALHNHYTQKSLSLSLGK heavy 2: EVQLVESGGGLVQPGGSLRLSCEASGFTFSSYEMNWVRQAPGKGLEWISHISSSGSSIYYADSVQGRFTISRDKAKNSLYLQMNSLRAEDTAVYYCTREGFEYGSSSGLKYYYYGLDVWGQGTTVTVSSASTKGPSVFPLAPCSRSTSESTAALGCLVKDYFPEPVTVSWNSGALTSGVHTFPAVLQSSGLYSLSSVVTVPSSSLGTKTYTCNVDHKPSNTKVDKRVESKYGPPCPPCPAPPVAGPSVFLFPPKPKDTLMISRTPEVTCVVVDVSQEDPEVQFNWYVDGVEVHNAKTKPREEQFNSTYRVVSVLTVLHQDWLNGKEYKCKVSNKGLPSSIEKTISKAKGQPREPQVYTLPPSQEEMTKNQVSLTCLVKGFYPSDIAVEWESNGQPENNYKTTPPVLDSDGSFFLYSRLTVDKSRWQEGNVFSCSVMHEALHNRFTQKSLSLSPGK light: not shown",–
